System: MS2 coat protein
Assay: apparent KD of MS2 coat protein; designed switch direction (-1 OFF switch, 1 ON switch): -1; higher = weaker reporter binding
Outline: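 The reported apparent KD is a per-design median over clusters, from curve fits of normalised cluster fluorescence. Protein titrations used SNAP-549-labelled MS2 coat protein, doubled from 0.7 or 1.5 nM to 3 µM, in Tris-HCl pH 7.5 buffer with KCl, MgCl2, BSA, DTT, tRNA and Tween-20, with no input, 200 uM small-molecule ligand, or an oligonucleotide input. The RNA switches were transcribed on Illumina chips by stalled E. coli RNA polymerase.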

[1] = Eterna round: R95, input ligand: FMN 200 uM
[2] = Eterna round: R95, input ligand: microRNA oligo, concentration not stated
[3] = Eterna round: R95, input ligand: none

| Sequence | apparent KD of MS2 coat protein (input ligand: FMN 200 uM) | apparent KD of MS2 coat protein (input ligand: none) | apparent KD of MS2 coat protein [1] | apparent KD of MS2 coat protein [2] | apparent KD of MS2 coat protein [3] | apparent KD of MS2 coat protein (input ligand: microRNA oligo, concentration not stated) |
| --- | --- | --- | --- | --- | --- | --- |
| UGCCGGGCGUGAUCGGAUGACAUGAGGAUCACCCAUGUGCCAGCACAUAAUACCGCUCGCGGUUUUUUGCUCGUCAU [Eternabot (Original) Solution 12] (Eterna round: R97, puzzle: Sensor, turn-off variant 1) | 221 nM | 250 nM |  |  |  |  |
| UGCCGUUGAGGAUAUACAUUGAAUUUGAUUCAUGUAAAACUACAUGAGGAUCACCCAUGUAGAAGGCAAUGGCU [Mat - Exclusion 2 - JL Mod - D63] (Eterna round: R97, puzzle: Exclusion 2) | 25.7 nM | 21.3 nM |  |  |  |  |
| UGCCGUUGAGGAUAUACGUAGAAAUAGAUUCAUGUAAAACUACAUGAGGAUCACCCAUGUAGAAGGCAAUGGCU [Mat - Exclusion 2 - JL Mod - D47] (Eterna round: R97, puzzle: Exclusion 2) | 221 nM | 24.4 nM |  |  |  |  |
| UGCCUAAGAGGAUAUACAUAGAAAUAGAUUCAUGUAAAACUACAUGAGGAUCACCCAUGUAGAAGGCUUGGGCU [Mat - Exclusion 2 - JL Mod - D54] (Eterna round: R97, puzzle: Exclusion 2) | 155 nM | 27.6 nM |  |  |  |  |
| UGCCUACAUGAGGAUCACCCAUGUGAGGAUAUCCUGCGAGGAUCAAAAGAUCCUCGUGGGAGAAGGCGCCUGGA [Omei Ex1 B5] (Eterna round: R97, puzzle: Exclusion 1) | 19.9 nM | 16.2 nM |  |  |  |  |
| UGCCUACGUGUGAGGAUAUCAAGGUUUCCACACUAUGAGAAGGUACAUGAGGAUCACCCAUGUUUAGAUGAGCC [Eternabot (L2) Solution 43] (Eterna round: R97, puzzle: Brourd's mod of Exclusion 4) | 74.2 nM | 74.6 nM |  |  |  |  |
| UGCGAGUAAGGAUAUUCGCGACCGCCCACAAAGGCGGUCGAGAAGAAGGUACUUGAGGAUCACCCAAGUCCUAA [Anremaqu] (Eterna round: R97, puzzle: Exclusion 4) | 98.2 nM | 22 nM |  |  |  |  |
| UGCGUUUGAGGAUAUACGUAGAAAUAGAUUCAUGUAAAACUACAUGAGGAUCACCCAUGUAGAAGGCAAGCGCU [Mat - Exclusion 2 - JL Mod - D39] (Eterna round: R97, puzzle: Exclusion 2) | 239 nM | 26.4 nM |  |  |  |  |
| UGCUGACGAGGAUAUACAUGAGGAUCACCCAUGUUGGUCAAGCGACGAUAGUCGCAAUGUAGAAGGCGUCAGCA [E3/8-A2] (Eterna round: R97, puzzle: Exclusion 3) | 239 nM | 405 nM |  |  |  |  |
| UGGUAACAUGAGGAUCACCCAUGUCAGGAUAUCAGUAAGAAUAGAUUAGAUUAGAAGAUGAGAAGGGACUAUAU [Excluse me! 5 - Jieux - Exclusion 1] (puzzle: Exclusion 1) |  |  | 27.6 nM | 32 nM | 36.7 nM |  |
| UGGUCACAUGAGGAUCACCCAUGUCAGGAUAUCUACAUUGAAGCCUCGGCUUCAAUGUAGAGAAGGGACAUAAU [E1/6-B2] (Eterna round: R97, puzzle: Exclusion 1) | 121 nM | 265 nM |  |  |  |  |
| UGGUCACAUGAGGAUCACCCAUGUCAGGAUAUCUACAUUGAAGCUGCGGCUUCAAUGUAGAGAAGGGACAUAAU [E1/7-B3] (Eterna round: R97, puzzle: Exclusion 1) | 314 nM | 272 nM |  |  |  |  |
| UGGUCACAUGAGGAUCACCCAUGUCAGGAUAUCUACAUUGAAGCUUCGGCUUCAAUGUAGAGAAGGGAUAUAAU [E1/9-B1] (Eterna round: R97, puzzle: Exclusion 1) | 167 nM | 71.4 nM |  |  |  |  |
| UGUAACCGAGGAUAUACAUGAGGAUCACCCAUGUAAUGUAGUAUAGUGUAUGUAAGAUGUAGAAGGUGGGAUGU (Eterna round: R97, puzzle: Exclusion 3) | 40.2 nM | 45.7 nM |  |  |  |  |
| UGUAACCUGGUAAGGAUAUAGUUGCAAGGAGUCAACUAGAAGGUACAUGAGGAUCACCCAUGUCUACGGAUAUC [Eternabot (L2) Solution 91] (Eterna round: R97, puzzle: Brourd's mod of Exclusion 4) | 20.6 nM | 17.3 nM |  |  |  |  |
| UGUACGAUGCGUGCUGACAUGCGUCGUGCAGCAGGUGAUACAUGAGGAUCACCCAUGUCCUCAUUUGCUCGUCAUGU [Mat - Sensor v3 - Turn-off var 2 - D25] (puzzle: Sensor v3, turn-off variant 2) |  |  | 73.4 nM | 384 nM | 91.3 nM |  |
| UGUACGAUGCGUGCUGACAUGCGUCGUGCAGCAGGUGAUACAUGAGGAUCACCCAUGUCCUCAUUUGCUCGUCUAGU [Mat - Sensor v3 - Turn-off var 2 - D24] (puzzle: Sensor v3, turn-off variant 2) |  |  | 72.5 nM | 467 nM | 78.4 nM |  |

| Sequence | apparent KD of MS2 coat protein (input ligand: FMN 200 uM) | apparent KD of MS2 coat protein (input ligand: none) | apparent KD of MS2 coat protein [1] | apparent KD of MS2 coat protein [2] | apparent KD of MS2 coat protein [3] | apparent KD of MS2 coat protein (input ligand: microRNA oligo, concentration not stated) |
| --- | --- | --- | --- | --- | --- | --- |
| UGUACGAUGCGUGCUGACAUGCGUCGUGCAGCAGGUGAUACAUGAGGAUCACCCAUGUCCUCAUUUGCUCGUCUUGU [SL-sv3-2.11 JL mod] (puzzle: Sensor v3, turn-off variant 2) |  |  | 82.5 nM | 267 nM | 85.6 nM |  |
| UGUACGAUGCGUGCUGACAUGCGUCGUGCAGCAGGUGGAACAUGAGGAUCACCCAUGUCCUCAUUUGCUCGUCUUGU [SL-sv3-2.10 JL mod] (puzzle: Sensor v3, turn-off variant 2) |  |  | 54.7 nM | 140 nM | 52.3 nM |  |
| UGUACUAACACGAGAGUGUUAGUACUAUAAGCUUGUGUUACAUGAGGAUCACCCAUGUCCUCAUAAGCUCGUCUUGA [Mat - Sensor v3 - Turn-off var 2 - D94] (puzzle: Sensor v3, turn-off variant 2) |  |  | 40.4 nM | 285 nM | 34 nM |  |
| UGUACUAUGCGUGCUGACAUGCGUAGUGCAGCAGGUGUUACAUGAGGAUCACCCAUGUCCUCAUUUGCUCGUCUUAU [SL-sv3-2.07 JL mod] (puzzle: Sensor v3, turn-off variant 2) |  |  | 189 nM | 200 nM | 215 nM |  |
| UGUAGAGUGGUAGGAUAUCCGUCUGUUUCAGUCGGAGAAGGGCCACAGUCACUGGGUCCUAAUAUCAUGGAGACCUGAUCUACU [pwkr exNG1 F6.14] (Eterna round: R96, puzzle: Exclusion NG 1) | 599 nM | 383 nM |  |  |  | 288 nM |
| UGUAGUUCAGGAUAUGAUGUUUAAUACAUGAGGAUCACCCAUGUAGAUCCUGAAUUUACAUCAGAAGGGAAUAUUU [JL-ex5-4.57 Brourd mod] (Eterna round: R97, puzzle: Exclusion 5) | 17.3 nM | 14.9 nM |  |  |  |  |
| UGUAUACAUGAGGAUCACCCAUGUAAGGAUAUACAUCAGAUCGACACCGGACUGGCCCGUAGAAGGUGCGUGGA [Eternabot (L2) Solution 67] (Eterna round: R97, puzzle: Exclusion 1) | 24.9 nM | 24 nM |  |  |  |  |
| UGUAUCCGAGGAUAUCGCUUGAGGGACAUGAGGAUCACCCAUGUGAAGAAAAGCGUCCCGCGAGAAGGCGGACCCA [EX5 B.24] (Eterna round: R97, puzzle: Exclusion 5) | 189 nM | 66.4 nM |  |  |  |  |
| UGUCAGUCAGGAUAUGCAUACGUAGACAUGAGGAUCACCCAUGUGACGUGGGCCUGGUGUGUAGAAGGGACGAACA [EX5 #80] (Eterna round: R97, puzzle: Exclusion 5) | 48.5 nM | 19.5 nM |  |  |  |  |
| UGUGCAACAGGAUAUAUGUGGCGUCCGUGAGGACGAAGGUUACAUGAGGAUCACCCAUGUAGAAGGGUUGUACU [Mat - Exclusion 2 - JL Mod - D24] (Eterna round: R97, puzzle: Exclusion 2) | 218 nM | 68.5 nM |  |  |  |  |
| UGUGCGUAUGUGAGGAUAUGCUGGUCCUUGGAUCGGCAGAAGGCACAUGAGGAUCACCCAUGUGGUGUCGUACA [salish99_Bmod_ex4_086] (puzzle: Brourd's mod of Exclusion 4) |  |  |  | 204 nM |  |  |
| UGUGCGUAUGUGAGGAUAUGCUGGUCCUUGGAUCGGCAGAAGGCACAUGAGGAUCACCCAUGUGGUGUCGUUCU [salish99_Bmod_ex4_096] (puzzle: Brourd's mod of Exclusion 4) |  |  |  | 188 nM |  |  |
| UGUGCGUCAGGAUAUUCUAUUUAUUACAUGAGGAUCACCCAUGUGAAUGUACAAGGGUGUGAAGAAGGGACUUGUG [LRO-Excl5-03-mod A17d by Omei] (Eterna round: R97, puzzle: Exclusion 5) | 808 nM | 1090 nM |  |  |  |  |
| UGUGUGAGACAGGAUAUGCCAGAUAUAUUACUGGUAGAAGGGUCUACAUGAGGAUCACCCAUGUGGCCGGCCGG [Ex6 #85] (Eterna round: R97, puzzle: Exclusion 6) | 65.3 nM | 28.5 nM |  |  |  |  |
| UGUGUGUGACAGGAUAUGCAGGUAAUGAGACGGGUAGAAGGGUCUACAUGAGGAUCACCCAUGUGGCCGGUUGG [Ex6 #62] (Eterna round: R97, puzzle: Exclusion 6) | 17.7 nM | 16.4 nM |  |  |  |  |
| UGUUGGCGAGGAUAUACAUGAGGAUCACCCAUGUGAGAGAAAAAAGUGAGGAAGAAAAGUAGAAGGCGCUGACG [salish99_ex3_r3_043] (puzzle: Exclusion 3) |  |  | 209 nM | 40 nM | 45.4 nM |  |
